B1: Human chemokine receptor CCR3 with a C-terminal 10-His tag (receptor, UniProt P51677 1-355, looked up)
chain: MTTSLDTVETFGTTSYYDDVGLLCEKADTRALMAQFVPPLYSLVFTVGLLGNVVVVMILIKYRRLRIMTNIYLLNLAISDLLFLVTLPFWIHYVRGHNWVFGHGMCKLLSGFYHTGLYSEIFFIILLTIDRYLAIVHAVFALRARTVTFGVITSIVTWGLAVLAALPEFIFYETEELFEETLCSALYPEDTVYSWRHFHTLRMTIFCLVLPLLVMAICYTGIIKTLLRCPSKKKYKAIRLIFVIMAVFFIFWTPYNVAILLSSYQSILFGNDCERSKHLDLVMLVTEVIAYSHCCMNPVIYAFVGERFRKYLRHFFHRHLLMHLGRYIPFLPSEKLERTSSVSPSTAEPELSIVF
notes: human chemokine receptor CCR3; theoretical molecular weight with the tag 42 kDa; The form full length is read from the printed primers (start codon to the last codons of the gene, then tag and stop); By the reverse primer two glycine codons seem to lie between the last CCR3 residue and the ten histidines (surmised from the primer); also called hCCR3; source: also in detergent cell lysate; not …
B2: CCL11 (eotaxin), home-made recombinant (ligand)
chain: not shown
notes: CCL11 (eotaxin), endogenous ligand of human CCR3; The detailed protocol is said to be submitted in a separate manuscript; Probably the mature chemokine without its signal peptide (surmised); also called eotaxin/CCL11; home-made CCL11
B3: commercial recombinant human CCL11 (PeproTech) (ligand)
chain: not shown
notes: recombinant human chemokine CCL11, bought; No catalogue number printed; probably the mature chemokine (surmised); also called CCL11 from PeproTech; commercial CCL11; source: bought: PeproTech (USA)
B4: CCL24 (eotaxin-2), home-made recombinant (ligand, human, UniProt O00175 27-119, looked up)
chain: VVIPSPCCMFFVSKRIPENRVVSYQLSSRSTCLKAGVIFTTKKGQQFCGDPKQEWVQRYMKNLDAKQKKASPRARAVAVKGPVQRYPGNQTTC
notes: CCL24 (eotaxin-2), endogenous ligand of human CCR3; The detailed protocol is said to be submitted in a separate manuscript; Probably the mature chemokine without its signal peptide (surmised); also called eotaxin-2/CCL24; home-made CCL24
B5: commercial recombinant human CCL24 (PeproTech) (ligand, UniProt O00175 27-119, looked up)
chain: B4 chain
notes: recombinant human chemokine CCL24, bought; No catalogue number printed; probably the mature chemokine (surmised); also called CCL24 from PeproTech; commercial CCL24; source: bought: PeproTech (USA)

Legend:
[1] = target: the molecule itself; assay: SDS-PAGE and western blot; hCCR3 after Ni affinity chromatography in FC-14; 4-12% NuPAGE Bis-Tris gel, LDS sample buffer with reducing agent, not heated; anti-His blot; bands at about 34, 58, 82 and 115 kDa
[2] = target: B1; assay: SPR; Biacore T100; His-tagged hCCR3 immobilised on a Ni-activated NTA sensor chip, chemokine flowed at 30 µl/min; 25°C; 10 mM HEPES, 0.15 M NaCl, 0.1% (wt/vol) DDM, pH 7.4; hCCR3 purified in DDM; 1:1 binding model, KD = kd/ka; details: both partners purified
[3] = target: B1; assay: SPR; Biacore T100; His-tagged hCCR3 immobilised on a Ni-activated NTA sensor chip, chemokine flowed at 30 µl/min; 25°C; 10 mM HEPES, 0.15 M NaCl, 0.1% (wt/vol) FC-14, pH 7.4; hCCR3 purified in FC-14; 1:1 binding model, KD = kd/ka; details: both partners purified
[4] = target: B1; assay: SPR; Biacore T100; His-tagged hCCR3 immobilised on a Ni-activated NTA sensor chip, chemokine flowed at 30 µl/min; 25°C; 10 mM HEPES, 0.15 M NaCl, 0.1% (wt/vol) DDM, pH 7.4; hCCR3 purified in DDM; 1:1 binding model, KD = kd/ka; details: both partners purified; remark: listed apart in the source
[5] = target: B1; assay: SPR; Biacore T100; His-tagged hCCR3 immobilised on a Ni-activated NTA sensor chip, chemokine flowed at 30 µl/min; 25°C; 10 mM HEPES, 0.15 M NaCl, 0.1% (wt/vol) FC-14, pH 7.4; hCCR3 purified in FC-14; 1:1 binding model, KD = kd/ka; details: both partners purified; remark: listed apart in the source

Binder | binding result [1] | Kd [2] [nM] | koff [2] [s⁻¹] | kon [2] [M⁻¹ s⁻¹] | Kd [3] [nM] | koff [3] [s⁻¹] | kon [3] [M⁻¹ s⁻¹] | Kd [4] [nM] | kon [5] [M⁻¹ s⁻¹]
B1 | binds |  |  |  |  |  |  |  | 
B2 |  | 70 | 0.017 | 250000 | 1300 | 0.063 | 49000 |  | 
B3 |  |  |  |  |  |  |  | 730 | 
B4 |  | 58 | 0.003 | 51000 | 1600 | 0.037 | 22000 |  | 23000
B5 |  |  |  |  |  |  |  | 210 | 

From PMC3670934, “Milligram Production and Biological Activity Characterization of the Human Chemokine Receptor CCR3” (PLoS ONE, 2013)
